Experimental data published in patent US20240034774A1.

Legend:
Assay in all cases: cell-based or functional assay
[1] = biological target: HIV-1 envelope glycoprotein (gp120) of virus 1003 (HIV-1)
[2] = biological target: HIV-1 envelope glycoprotein (gp120) of virus 1012 (HIV-1)
[3] = biological target: HIV-1 envelope glycoprotein (gp120) of virus 1413 (HIV-1)
[4] = biological target: HIV-1 envelope glycoprotein (gp120) of virus 1489 (HIV-1)
[5] = biological target: HIV-1 envelope glycoprotein (gp120) of virus 302076 (HIV-1)
[6] = biological target: HIV-1 envelope glycoprotein (gp120) of virus 7015 (HIV-1)
[7] = biological target: HIV-1 envelope glycoprotein (gp120) of virus 7051 (HIV-1)
[8] = biological target: HIV-1 envelope glycoprotein (gp120) of virus 7103 (HIV-1)
[9] = biological target: HIV-1 envelope glycoprotein (gp120) of virus 7141 (HIV-1)
[10] = biological target: HIV-1 envelope glycoprotein (gp120) of virus 7467 (HIV-1)
[11] = biological target: HIV-1 envelope glycoprotein (gp120) of virus 7552 (HIV-1)
[12] = biological target: HIV-1 envelope glycoprotein (gp120) of virus 7576 (HIV-1)
[13] = biological target: HIV-1 envelope glycoprotein (gp120) of virus 7595 (HIV-1)
[14] = biological target: HIV-1 envelope glycoprotein (gp120) of virus 8106 (HIV-1)
[15] = biological target: HIV-1 envelope glycoprotein (gp120) of virus 8110 (HIV-1)
[16] = biological target: HIV-1 envelope glycoprotein (gp120) of virus 8117 (HIV-1)
[17] = biological target: HIV-1 envelope glycoprotein (gp120) of virus 8134 (HIV-1)
[18] = biological target: HIV-1 envelope glycoprotein (gp120) of virus 8176 (HIV-1)
[19] = biological target: HIV-1 envelope glycoprotein (gp120) of virus 8318 (HIV-1)
[20] = biological target: HIV-1 envelope glycoprotein (gp120) of virus 8320 (HIV-1)
[21] = biological target: HIV-1 envelope glycoprotein (gp120) of virus 92HT593 (HIV-1)
[22] = biological target: HIV-1 envelope glycoprotein (gp120) of virus 92US657 (HIV-1)
[23] = biological target: HIV-1 envelope glycoprotein (gp120) of virus 92US712 (HIV-1)
[24] = biological target: HIV-1 envelope glycoprotein (gp120) of virus 92US727 (HIV-1)
[25] = biological target: HIV-1 envelope glycoprotein (gp120) of virus CHO77 (HIV-1)
[26] = biological target: HIV-1 envelope glycoprotein (gp120) of virus REJO (HIV-1)
[27] = biological target: HIV-1 envelope glycoprotein (gp120) of virus THRO (HIV-1)
[28] = biological target: HIV-1 envelope glycoprotein (gp120) of virus VS001 (HIV-1)
[29] = biological target: HIV-1 envelope glycoprotein (gp120) of virus VS004 (HIV-1)
[30] = biological target: HIV-1 envelope glycoprotein (gp120) of virus VS017 (HIV-1)
[31] = biological target: HIV-1 envelope glycoprotein (gp120) of virus VS026 (HIV-1)
[32] = biological target: HIV-1 envelope glycoprotein (gp120) of virus VS030 (HIV-1)
[33] = biological target: HIV-1 envelope glycoprotein (gp120) of virus VS039 (HIV-1)
[34] = biological target: HIV-1 envelope glycoprotein (gp120) of virus VS042 (HIV-1)
[35] = biological target: HIV-1 envelope glycoprotein (gp120) of virus VS043 (HIV-1)
[36] = biological target: HIV-1 envelope glycoprotein (gp120) of virus VS044 (HIV-1)
[37] = biological target: HIV-1 envelope glycoprotein (gp120) of virus VS046 (HIV-1)
[38] = biological target: HIV-1 envelope glycoprotein (gp120) of virus VS049 (HIV-1)
[39] = biological target: HIV-1 envelope glycoprotein (gp120) of virus 7714 (HIV-1)
[40] = biological target: HIV-1 envelope glycoprotein gp120 of virus 92US657 (HIV-1 (subtype B))
[41] = biological target: HIV-1 envelope glycoprotein gp120 of virus BaL (HIV-1 (subtype B))
[42] = biological target: HIV-1 envelope glycoprotein gp120 of virus CHO77 (HIV-1 (subtype B))

B1: Antibody 1.1.104-1 (antibody, human IgG1, kappa, V domains shown)
VH: QVQLLQSGAAVTKPGASVRVSCEASGYNIRDYFIHWWRQAPGQGLQWVGWINPKTGQPNNPRQFQGRVSLTRHASWDFDTFSFYMDLKALRSDDTAVYFCARQRSDYWDFDVWGSGTQVTVSS
VL: DIQMTQSPSSLSASVGDTATITCQANGYLNWYQQRRGKAPKLLIYDGSKLERGVPSRFSGRRWGQEYTLTINNLQPEDIATYFCQVYEFFGPGTRLDLKR
Virus Neutralization Potency [1]: 1.44 µg/mL | Virus Neutralization Potency [2]: 2.87 µg/mL | Virus Neutralization Potency [3]: 4.34 µg/mL | Virus Neutralization Potency [4]: 0.28 µg/mL | Virus Neutralization Potency [5]: 0.1 µg/mL | Virus Neutralization Potency [6]: 0.67 µg/mL | Virus Neutralization Potency [7]: 1.32 µg/mL | Virus Neutralization Potency [8]: 1.82 µg/mL | Virus Neutralization Potency [9]: 6.57 µg/mL | Virus Neutralization Potency [10]: 0.06 µg/mL | Virus Neutralization Potency [11]: > 80 µg/mL | Virus Neutralization Potency [12]: 1.1 µg/mL | Virus Neutralization Potency [13]: 8.47 µg/mL | Virus Neutralization Potency [14]: 2.8 µg/mL | Virus Neutralization Potency [15]: 4.19 µg/mL | Virus Neutralization Potency [16]: 1.22 µg/mL | Virus Neutralization Potency [17]: 6.07 µg/mL | Virus Neutralization Potency [18]: 0.16 µg/mL | Virus Neutralization Potency [19]: 0.32 µg/mL | Virus Neutralization Potency [20]: 4.34 µg/mL | Virus Neutralization Potency [21]: 0.28 µg/mL | Virus Neutralization Potency [22]: 0.36 µg/mL | Virus Neutralization Potency [23]: 0.04 µg/mL | Virus Neutralization Potency [24]: 10.6 µg/mL | Virus Neutralization Potency [25]: 0.03 µg/mL | Virus Neutralization Potency [26]: 0.02 µg/mL | Virus Neutralization Potency [27]: 4.27 µg/mL | Virus Neutralization Potency [28]: 0.34 µg/mL | Virus Neutralization Potency [29]: 4.8 µg/mL | Virus Neutralization Potency [30]: 2.33 µg/mL | Virus Neutralization Potency [31]: 0.19 µg/mL | Virus Neutralization Potency [32]: 7.9 µg/mL | Virus Neutralization Potency [33]: 0.1 µg/mL | Virus Neutralization Potency [34]: 2.33 µg/mL | Virus Neutralization Potency [35]: 1.49 µg/mL | Virus Neutralization Potency [36]: 0.28 µg/mL | Virus Neutralization Potency [37]: 0.03 µg/mL | Virus Neutralization Potency [38]: > 100 µg/mL

B2: Antibody 1.1.119-1 (antibody, human IgG1, kappa, V domains shown)
VH: QVQLLQSGAAVTKPGASVRVSCEASGYNIRDYFIHWWRQAPGQGLQWVGWINPKTGQPNNPRQFQGRVSLTRHASWDFDTFSFYMDLKALRSDDTAVYFCARQRSDYWDFDVWGSGTQVTVSS
VL: DIQMTQSPSSLSASVGDRATITCQANGYLNWYQQRRGKAPKLLIYDGSKLERGVPSRFSGSRWGQEYTLTISSLQPEDIATYFCQVYEFFGPGTRLDLKR
Virus Neutralization Potency [1]: 0.91 µg/mL | Virus Neutralization Potency [2]: 1.06 µg/mL | Virus Neutralization Potency [3]: 4.52 µg/mL | Virus Neutralization Potency [4]: 0.17 µg/mL | Virus Neutralization Potency [5]: 0.08 µg/mL | Virus Neutralization Potency [6]: 1.08 µg/mL | Virus Neutralization Potency [7]: 1.89 µg/mL | Virus Neutralization Potency [8]: 1.16 µg/mL | Virus Neutralization Potency [9]: 4.98 µg/mL | Virus Neutralization Potency [10]: 0.19 µg/mL | Virus Neutralization Potency [11]: > 80 µg/mL | Virus Neutralization Potency [12]: 0.6 µg/mL | Virus Neutralization Potency [13]: 3.07 µg/mL | Virus Neutralization Potency [39]: 1.93 µg/mL | Virus Neutralization Potency [14]: 1.44 µg/mL | Virus Neutralization Potency [15]: 2.37 µg/mL | Virus Neutralization Potency [16]: 1.66 µg/mL | Virus Neutralization Potency [17]: 3.44 µg/mL | Virus Neutralization Potency [18]: 0.27 µg/mL | Virus Neutralization Potency [19]: 0.42 µg/mL | Virus Neutralization Potency [20]: 1.47 µg/mL | Virus Neutralization Potency [21]: 0.15 µg/mL | Virus Neutralization Potency [22]: 0.3 µg/mL | Virus Neutralization Potency [23]: 0.03 µg/mL | Virus Neutralization Potency [24]: 43.7 µg/mL | Virus Neutralization Potency [25]: 0.02 µg/mL | Virus Neutralization Potency [26]: 0.03 µg/mL | Virus Neutralization Potency [27]: 2.8 µg/mL | Virus Neutralization Potency [28]: 0.37 µg/mL | Virus Neutralization Potency [29]: 6.02 µg/mL | Virus Neutralization Potency [30]: 2.75 µg/mL | Virus Neutralization Potency [31]: 0.14 µg/mL | Virus Neutralization Potency [32]: 4.96 µg/mL | Virus Neutralization Potency [33]: 0.13 µg/mL | Virus Neutralization Potency [34]: 2.19 µg/mL | Virus Neutralization Potency [35]: 0.81 µg/mL | Virus Neutralization Potency [36]: 0.2 µg/mL | Virus Neutralization Potency [37]: 0.03 µg/mL | Virus Neutralization Potency [38]: > 100 µg/mL

B3: Antibody 1.36.35-1 (antibody, human IgG1, kappa, V domains shown)
VH: QVQLVQSGAEVKKPGASVRVSCKASGYNIRDYFMHWWRQAPGQGLQWVGWINPKTGQPNNPRQFQGRVTMTRHASWDFDTFSAYMDLSRLRSDDTATYFCARQRTDYWDFDVWGQGTMVTVSS
VL: DIQMTQSPSSLSASVGDRVTITCQANGYLNWYQQKPGKAPKLLIYDGSNLETGVPSRFSGSRWGQEYTLTISSLQPEDIATYFCQVYEFVGPGTNLDIKR
Virus Neutralization Potency (IC50) [40]: 5.37 µg/mL | Virus Neutralization Potency (IC50) [41]: > 20 µg/mL | Virus Neutralization Potency (IC50) [42]: 0.32 µg/mL
